According to article PMC10520873, “Biochemical investigation of the tryptophan biosynthetic enzyme anthranilate phosphoribosyltransferase in plants” (The Journal of Biological Chemistry, 2023):

Substrate: Nc1c(O)cccc1C(=O)O
Assay: purified protein
Assay type: biochemical, Physcomitrium patens
Settings: 1 mM PR-PPi, 45 mM imidazole HCl pH 7.4, 30 °C, 3-HAA 0-0.5 mM

B1: PpPAT1 (Physcomitrium patens) (protein)
chain: MAAALASQRTWLPSSSVGPFRGSFATAPASSPRVLGVPRKFAVESGKWEVLVRNVRAQSSTVTVPARTLSIPQVLEQLIQGTNLTQAQTEEVMETLLADANPAIIGAFLALLRAKGETLDEVTGLASAMLSRAIPVRTVPGSLDIVGTGGDGANTVNISTGSCILAAACGAKVAKHGSRSSSSACGSADVLETLGVAIDLGPEGVAKCVEDVGVGFMFAPTYHPAMKVVAPVRRSLKIKTAFNILGPMLNPSRAPHSIVGVYHDNLVEKMAKILQHFGTKRTLVVHCHGLDEMSPLGGGRVLEVTQDKIESFVFDPLNFGIPRCTLEDLKGGNADFNAKSLRNVFAGEPGPIADSLILNAAAGIMACGLVKDLGEGVSLARDVLRSGRANTVLDNWISLSQKLKAEEVSE
notes: codon-optimized gene in pET28a, His-tagged, E. coli BL21 (DE3), Ni-NTA
For B1, the Km was 99.71 ± 11.2 µM, the kcat was 0.0533 ± 0.00167 s⁻¹ and the kcat/Km was 537 M⁻¹ s⁻¹.
